Biological target: C276A USP2 catalytic core (inactive active-site mutant) (human) (UniProt O75604)
Experiment: stopped-flow fluorescence

Chain of C276A USP2 catalytic core (inactive active-site mutant) (human) (O75604 259-605 C276A): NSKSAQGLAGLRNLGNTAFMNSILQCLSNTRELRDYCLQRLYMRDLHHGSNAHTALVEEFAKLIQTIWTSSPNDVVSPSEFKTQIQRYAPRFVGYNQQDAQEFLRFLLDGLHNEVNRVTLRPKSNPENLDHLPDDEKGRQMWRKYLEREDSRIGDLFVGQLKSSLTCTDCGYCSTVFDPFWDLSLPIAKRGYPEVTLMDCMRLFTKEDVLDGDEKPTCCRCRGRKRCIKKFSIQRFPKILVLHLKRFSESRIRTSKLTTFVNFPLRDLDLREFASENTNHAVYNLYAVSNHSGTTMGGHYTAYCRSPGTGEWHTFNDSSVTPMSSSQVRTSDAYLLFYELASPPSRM

- k1 (first step, association): 230000 M⁻¹ s⁻¹
- k−1 (first step, dissociation): 0.06 s⁻¹
Substance: native K48-linked diubiquitin (from UniProt P0CG48 1-76)

Reference: paper PMC3617563
